Values quoted from earlier work in patent US20180318303A1, “METHODS FOR TREATING MYELOPROLIFERATIVE DISORDERS” (Promedior, Inc., priority 2015, published 2018).

Details: in vivo

For “SAP: naturally occurring serum protein in mammals composed of five identical subunits, non-covalently associated in a disk-like complex”, which physiological half-life is on record?
The physiological half-life was “twenty-four”.
